Source: publication PMC7316778 (Nature Communications, 2020)

target: CSK (Homo sapiens, UniProt P41240); assay: PamChip microarray peptide phosphorylation; settings: peptide substrate phosphorylated by CSK
Sequence (P41240 whole entry): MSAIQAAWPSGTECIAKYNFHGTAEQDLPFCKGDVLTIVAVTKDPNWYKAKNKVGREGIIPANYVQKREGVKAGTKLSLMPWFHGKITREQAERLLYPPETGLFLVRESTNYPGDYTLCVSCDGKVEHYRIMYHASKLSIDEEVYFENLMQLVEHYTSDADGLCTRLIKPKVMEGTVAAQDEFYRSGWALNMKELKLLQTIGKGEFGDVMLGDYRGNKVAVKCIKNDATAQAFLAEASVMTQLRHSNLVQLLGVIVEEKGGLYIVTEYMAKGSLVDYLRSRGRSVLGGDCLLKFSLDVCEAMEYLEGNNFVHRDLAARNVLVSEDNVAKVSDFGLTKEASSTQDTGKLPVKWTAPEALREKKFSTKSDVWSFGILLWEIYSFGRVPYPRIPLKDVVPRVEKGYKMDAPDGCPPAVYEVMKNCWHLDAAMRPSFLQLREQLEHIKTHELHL

| Substance | Relative phosphorylation (% of highest signal) |
| --- | --- |
| VGFR2_989_1001 (EEAPEDLYKDFLT; UniProt P35968 989-1001, looked up, fragment) | 30.5 % of highest signal |
| VGFR2_1046_1058 (DFGLARDIYKDPD; UniProt P35968 1046-1058, looked up, fragment) | 2.2 % of highest signal |
| ART_004_EAIYAAPFAKKKXC | 17.0 % of highest signal |
| VGFR1_1206_1218 (GSSDDVRYVNAFK; UniProt P17948 1206-1218, looked up, fragment) | -0.459 % of highest signal |
| PERI_458_470 (QRSELDKSSAHSY; UniProt P41219 458-470, looked up, fragment) | -0.632 % of highest signal |
| VGFR1_1049_1061 (KNPDYVRKGDTRL; UniProt P17948 1049-1061, looked up, fragment) | -0.8 % of highest signal |
| EPHA4_921_933 (QAIKMDRYKDNFT; UniProt P54764 921-933, looked up, fragment) | -0.535 % of highest signal |
| MBP_259_271 (FGYGGRASDYKSA; UniProt P02686 259-271, looked up, fragment) | -0.0622 % of highest signal |
| STAT1_694_706 (DGPKGTGYIKTEL; UniProt P42224 694-706, looked up, fragment) | -1.4 % of highest signal |
| ZAP70_485_497 (ALGADDSYYTARS; UniProt P43403 485-497, looked up, fragment) | 0.277 % of highest signal |

target: LYN (Homo sapiens, UniProt P07948); assay: PamChip microarray peptide phosphorylation; settings: peptide substrate phosphorylated by LYN
Sequence (P07948 whole entry): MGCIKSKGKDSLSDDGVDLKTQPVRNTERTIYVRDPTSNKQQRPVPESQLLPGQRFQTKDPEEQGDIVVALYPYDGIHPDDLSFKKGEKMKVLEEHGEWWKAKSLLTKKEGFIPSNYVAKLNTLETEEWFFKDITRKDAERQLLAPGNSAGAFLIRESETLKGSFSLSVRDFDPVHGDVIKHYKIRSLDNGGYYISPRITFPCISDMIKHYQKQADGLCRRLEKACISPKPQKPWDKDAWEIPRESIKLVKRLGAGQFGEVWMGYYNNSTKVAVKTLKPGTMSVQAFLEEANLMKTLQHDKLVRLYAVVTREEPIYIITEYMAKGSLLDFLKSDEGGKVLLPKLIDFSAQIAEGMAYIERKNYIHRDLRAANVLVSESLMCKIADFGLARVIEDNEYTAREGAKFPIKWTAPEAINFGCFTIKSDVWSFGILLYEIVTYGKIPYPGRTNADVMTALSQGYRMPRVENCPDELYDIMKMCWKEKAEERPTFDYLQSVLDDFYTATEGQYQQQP

| Substance | Relative phosphorylation (% of highest signal) |
| --- | --- |
| VGFR2_989_1001 (EEAPEDLYKDFLT; UniProt P35968 989-1001, looked up, fragment) | 2.8 % of highest signal |
| VGFR2_1046_1058 (DFGLARDIYKDPD; UniProt P35968 1046-1058, looked up, fragment) | 0.243 % of highest signal |
| ART_004_EAIYAAPFAKKKXC | 2.6 % of highest signal |
| VGFR1_1206_1218 (GSSDDVRYVNAFK; UniProt P17948 1206-1218, looked up, fragment) | -0.1 % of highest signal |
| PERI_458_470 (QRSELDKSSAHSY; UniProt P41219 458-470, looked up, fragment) | -0.0931 % of highest signal |
| VGFR1_1049_1061 (KNPDYVRKGDTRL; UniProt P17948 1049-1061, looked up, fragment) | -0.274 % of highest signal |
| EPHA4_921_933 (QAIKMDRYKDNFT; UniProt P54764 921-933, looked up, fragment) | -0.126 % of highest signal |
| MBP_259_271 (FGYGGRASDYKSA; UniProt P02686 259-271, looked up, fragment) | -0.152 % of highest signal |
| STAT1_694_706 (DGPKGTGYIKTEL; UniProt P42224 694-706, looked up, fragment) | -0.0105 % of highest signal |
| ZAP70_485_497 (ALGADDSYYTARS; UniProt P43403 485-497, looked up, fragment) | 1.0 % of highest signal |

target: SYK (Homo sapiens, UniProt P43405); assay: PamChip microarray peptide phosphorylation; settings: peptide substrate phosphorylated by SYK

| Substance | Relative phosphorylation (% of highest signal) |
| --- | --- |
| VGFR2_989_1001 (EEAPEDLYKDFLT; UniProt P35968 989-1001, looked up, fragment) | 15.3 % of highest signal |
| VGFR2_1046_1058 (DFGLARDIYKDPD; UniProt P35968 1046-1058, looked up, fragment) | 0.6 % of highest signal |
| ART_004_EAIYAAPFAKKKXC | 3.2 % of highest signal |
| VGFR1_1206_1218 (GSSDDVRYVNAFK; UniProt P17948 1206-1218, looked up, fragment) | -0.354 % of highest signal |
| PERI_458_470 (QRSELDKSSAHSY; UniProt P41219 458-470, looked up, fragment) | -1.3 % of highest signal |
| VGFR1_1049_1061 (KNPDYVRKGDTRL; UniProt P17948 1049-1061, looked up, fragment) | -0.167 % of highest signal |
| EPHA4_921_933 (QAIKMDRYKDNFT; UniProt P54764 921-933, looked up, fragment) | -0.4 % of highest signal |
| MBP_259_271 (FGYGGRASDYKSA; UniProt P02686 259-271, looked up, fragment) | 0.9 % of highest signal |
| STAT1_694_706 (DGPKGTGYIKTEL; UniProt P42224 694-706, looked up, fragment) | -1.9 % of highest signal |
| ZAP70_485_497 (ALGADDSYYTARS; UniProt P43403 485-497, looked up, fragment) | 10.4 % of highest signal |

target: ABL1 (Homo sapiens, UniProt P00519); assay: PamChip microarray peptide phosphorylation; settings: peptide substrate phosphorylated by ABL1
Sequence (P00519 whole entry): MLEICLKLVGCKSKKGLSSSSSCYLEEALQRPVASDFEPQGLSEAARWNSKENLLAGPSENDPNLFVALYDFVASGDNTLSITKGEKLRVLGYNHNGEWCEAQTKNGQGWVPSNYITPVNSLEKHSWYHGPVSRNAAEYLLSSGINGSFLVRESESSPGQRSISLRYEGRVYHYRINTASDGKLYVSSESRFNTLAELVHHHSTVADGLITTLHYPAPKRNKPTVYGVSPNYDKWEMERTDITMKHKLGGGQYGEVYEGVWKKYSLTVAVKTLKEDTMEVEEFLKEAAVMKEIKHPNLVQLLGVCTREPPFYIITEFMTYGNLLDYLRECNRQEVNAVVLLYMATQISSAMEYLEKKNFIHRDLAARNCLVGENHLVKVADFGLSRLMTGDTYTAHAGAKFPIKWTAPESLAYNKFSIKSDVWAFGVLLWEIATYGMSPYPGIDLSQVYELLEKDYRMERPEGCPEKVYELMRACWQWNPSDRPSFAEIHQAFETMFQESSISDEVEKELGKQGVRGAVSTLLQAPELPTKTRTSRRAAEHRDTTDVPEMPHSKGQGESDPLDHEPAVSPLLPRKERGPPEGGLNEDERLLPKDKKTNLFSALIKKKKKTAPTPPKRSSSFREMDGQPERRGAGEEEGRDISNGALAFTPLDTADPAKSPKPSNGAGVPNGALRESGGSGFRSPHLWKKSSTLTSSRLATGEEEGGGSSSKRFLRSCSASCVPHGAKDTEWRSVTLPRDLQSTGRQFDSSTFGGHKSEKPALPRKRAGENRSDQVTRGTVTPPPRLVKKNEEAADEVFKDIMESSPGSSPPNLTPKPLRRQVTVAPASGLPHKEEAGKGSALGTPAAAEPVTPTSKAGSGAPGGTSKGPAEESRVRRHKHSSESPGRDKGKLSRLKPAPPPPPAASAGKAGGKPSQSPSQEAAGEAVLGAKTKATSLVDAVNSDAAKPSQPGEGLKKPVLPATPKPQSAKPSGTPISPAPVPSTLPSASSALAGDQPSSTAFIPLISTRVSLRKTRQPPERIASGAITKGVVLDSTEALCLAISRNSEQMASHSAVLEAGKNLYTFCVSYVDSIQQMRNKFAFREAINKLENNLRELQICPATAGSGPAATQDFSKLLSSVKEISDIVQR

| Substance | Relative phosphorylation (% of highest signal) |
| --- | --- |
| VGFR2_989_1001 (EEAPEDLYKDFLT; UniProt P35968 989-1001, looked up, fragment) | 2.3 % of highest signal |
| VGFR2_1046_1058 (DFGLARDIYKDPD; UniProt P35968 1046-1058, looked up, fragment) | -0.11 % of highest signal |
| ART_004_EAIYAAPFAKKKXC | 100.0 % of highest signal |
| VGFR1_1206_1218 (GSSDDVRYVNAFK; UniProt P17948 1206-1218, looked up, fragment) | 0.0233 % of highest signal |
| PERI_458_470 (QRSELDKSSAHSY; UniProt P41219 458-470, looked up, fragment) | -0.4 % of highest signal |
| VGFR1_1049_1061 (KNPDYVRKGDTRL; UniProt P17948 1049-1061, looked up, fragment) | -0.36 % of highest signal |
| EPHA4_921_933 (QAIKMDRYKDNFT; UniProt P54764 921-933, looked up, fragment) | -0.327 % of highest signal |
| MBP_259_271 (FGYGGRASDYKSA; UniProt P02686 259-271, looked up, fragment) | -0.0479 % of highest signal |
| STAT1_694_706 (DGPKGTGYIKTEL; UniProt P42224 694-706, looked up, fragment) | -0.6 % of highest signal |
| ZAP70_485_497 (ALGADDSYYTARS; UniProt P43403 485-497, looked up, fragment) | -0.0741 % of highest signal |

target: T1, FES^WT (Homo sapiens, UniProt P07332); assay: PamChip microarray peptide phosphorylation; format: biochemical; settings: peptide substrate phosphorylated by FES - WT
T1 construct: human FES cDNA encoding residues 448–822 or human FER cDNA encoding residues 448–820 was amplified by PCR; made in house; host or cells: E. coli BL21(DE3), co-expressing YopH phosphatase
T1 sequence (P07332 448-822): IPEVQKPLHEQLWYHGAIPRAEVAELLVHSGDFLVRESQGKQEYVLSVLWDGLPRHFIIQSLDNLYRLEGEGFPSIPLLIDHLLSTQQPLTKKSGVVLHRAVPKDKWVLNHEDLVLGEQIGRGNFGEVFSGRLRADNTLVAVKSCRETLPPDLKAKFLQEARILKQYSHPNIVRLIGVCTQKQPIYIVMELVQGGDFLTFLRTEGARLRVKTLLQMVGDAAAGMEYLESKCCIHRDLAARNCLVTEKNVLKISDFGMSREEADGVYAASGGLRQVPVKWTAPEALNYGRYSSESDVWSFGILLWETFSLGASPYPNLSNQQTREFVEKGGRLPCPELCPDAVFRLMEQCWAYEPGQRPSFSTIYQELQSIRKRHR

| Substance | Relative phosphorylation (% of highest signal) |
| --- | --- |
| VGFR2_989_1001 (EEAPEDLYKDFLT; UniProt P35968 989-1001, looked up, fragment) | 10.0 % of highest signal |
| VGFR2_1046_1058 (DFGLARDIYKDPD; UniProt P35968 1046-1058, looked up, fragment) | 1.1 % of highest signal |
| ART_004_EAIYAAPFAKKKXC | 5.0 % of highest signal |
| VGFR1_1206_1218 (GSSDDVRYVNAFK; UniProt P17948 1206-1218, looked up, fragment) | -0.0198 % of highest signal |
| PERI_458_470 (QRSELDKSSAHSY; UniProt P41219 458-470, looked up, fragment) | -0.5 % of highest signal |
| VGFR1_1049_1061 (KNPDYVRKGDTRL; UniProt P17948 1049-1061, looked up, fragment) | -0.333 % of highest signal |
| EPHA4_921_933 (QAIKMDRYKDNFT; UniProt P54764 921-933, looked up, fragment) | -0.348 % of highest signal |
| MBP_259_271 (FGYGGRASDYKSA; UniProt P02686 259-271, looked up, fragment) | -0.152 % of highest signal |
| STAT1_694_706 (DGPKGTGYIKTEL; UniProt P42224 694-706, looked up, fragment) | -0.5 % of highest signal |
| ZAP70_485_497 (ALGADDSYYTARS; UniProt P43403 485-497, looked up, fragment) | 3.5 % of highest signal |

target: FGR (Homo sapiens, UniProt P09769); assay: PamChip microarray peptide phosphorylation; settings: peptide substrate phosphorylated by FGR

| Substance | Relative phosphorylation (% of highest signal) |
| --- | --- |
| VGFR2_989_1001 (EEAPEDLYKDFLT; UniProt P35968 989-1001, looked up, fragment) | 21.5 % of highest signal |
| VGFR2_1046_1058 (DFGLARDIYKDPD; UniProt P35968 1046-1058, looked up, fragment) | 1.2 % of highest signal |
| ART_004_EAIYAAPFAKKKXC | 8.3 % of highest signal |
| VGFR1_1206_1218 (GSSDDVRYVNAFK; UniProt P17948 1206-1218, looked up, fragment) | -1.0 % of highest signal |
| PERI_458_470 (QRSELDKSSAHSY; UniProt P41219 458-470, looked up, fragment) | -1.2 % of highest signal |
| VGFR1_1049_1061 (KNPDYVRKGDTRL; UniProt P17948 1049-1061, looked up, fragment) | -2.4 % of highest signal |
| EPHA4_921_933 (QAIKMDRYKDNFT; UniProt P54764 921-933, looked up, fragment) | -1.7 % of highest signal |
| MBP_259_271 (FGYGGRASDYKSA; UniProt P02686 259-271, looked up, fragment) | 0.634 % of highest signal |
| STAT1_694_706 (DGPKGTGYIKTEL; UniProt P42224 694-706, looked up, fragment) | -3.3 % of highest signal |
| ZAP70_485_497 (ALGADDSYYTARS; UniProt P43403 485-497, looked up, fragment) | 7.8 % of highest signal |
